From IntAct's records for PubMed 35512704

B1: Mothers against decapentaplegic homolog 4 (Homo sapiens), Q13485 (parent)
chain: MDNMSITNTPTSNDACLSIVHSLMCHRQGGESETFAKRAIESLVKKLKEKKDELDSLITAITTNGAHPSKCVTIQRTLDGRLQVAGRKGFPHVIYARLWRWPDLHKNELKHVKYCQYAFDLKCDSVCVNPYHYERVVSPGIDLSGLTLQSNAPSSMMVKDEYVHDFEGQPSLSTEGHSIQTIQHPPSNRASTETYSTPALLAPSESNATSTANFPNIPVASTSQPASILGGSHSEGLLQIASGPQPGQQQNGFTGQPATYHHNSTTTWTGSRTAPYTPNLPHHQNGHLQHHPPMPPHPGHYWPVHNELAFQPPISNHPAPEYWCSIAYFEMDVQVGETFKVPSSCPIVTVDGYVDPSGGDRFCLGQLSNVHRTEAIERARLHIGKGVQLECKGEGDVWVRCLSDHAVFVQSYYLDREAGRAPGDAVHKIYPSAYIKVFDLRQCHRQMQQQAATAQAAAAAQAAAVAGNIPGPGSVGGIAPAISLSAAAGIGVDDLRRLCILRMSFVKGWGPDYPRQSIKETPCWIEIHLHRALQLLDEVLHTMPIADPQPLD
partner: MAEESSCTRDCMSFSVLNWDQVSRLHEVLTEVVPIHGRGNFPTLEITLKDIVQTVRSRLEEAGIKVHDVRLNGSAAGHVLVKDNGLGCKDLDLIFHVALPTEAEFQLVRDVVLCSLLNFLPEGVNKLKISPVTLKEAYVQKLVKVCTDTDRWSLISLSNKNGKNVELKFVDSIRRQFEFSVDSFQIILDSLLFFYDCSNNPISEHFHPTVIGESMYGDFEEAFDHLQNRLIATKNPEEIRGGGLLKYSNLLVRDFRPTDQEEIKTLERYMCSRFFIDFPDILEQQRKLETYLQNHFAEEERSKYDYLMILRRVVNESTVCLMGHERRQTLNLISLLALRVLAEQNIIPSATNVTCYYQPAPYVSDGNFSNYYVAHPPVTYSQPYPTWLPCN
B2: Mothers against decapentaplegic homolog 4 (Homo sapiens), Q13485 (parent)
chain: B1 chain
partner: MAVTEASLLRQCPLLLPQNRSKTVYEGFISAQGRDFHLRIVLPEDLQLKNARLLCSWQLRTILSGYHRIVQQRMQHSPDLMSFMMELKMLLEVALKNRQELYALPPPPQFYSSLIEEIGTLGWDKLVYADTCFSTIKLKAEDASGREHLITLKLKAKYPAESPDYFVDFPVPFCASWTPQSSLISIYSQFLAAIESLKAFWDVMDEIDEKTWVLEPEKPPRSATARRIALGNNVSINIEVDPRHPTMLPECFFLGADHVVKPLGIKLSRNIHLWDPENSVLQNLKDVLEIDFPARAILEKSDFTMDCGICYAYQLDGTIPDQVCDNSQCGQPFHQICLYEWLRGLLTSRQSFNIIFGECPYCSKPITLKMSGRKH
B3: Mothers against decapentaplegic homolog 4 (Homo sapiens), Q13485 (parent)
chain: B1 chain
partner: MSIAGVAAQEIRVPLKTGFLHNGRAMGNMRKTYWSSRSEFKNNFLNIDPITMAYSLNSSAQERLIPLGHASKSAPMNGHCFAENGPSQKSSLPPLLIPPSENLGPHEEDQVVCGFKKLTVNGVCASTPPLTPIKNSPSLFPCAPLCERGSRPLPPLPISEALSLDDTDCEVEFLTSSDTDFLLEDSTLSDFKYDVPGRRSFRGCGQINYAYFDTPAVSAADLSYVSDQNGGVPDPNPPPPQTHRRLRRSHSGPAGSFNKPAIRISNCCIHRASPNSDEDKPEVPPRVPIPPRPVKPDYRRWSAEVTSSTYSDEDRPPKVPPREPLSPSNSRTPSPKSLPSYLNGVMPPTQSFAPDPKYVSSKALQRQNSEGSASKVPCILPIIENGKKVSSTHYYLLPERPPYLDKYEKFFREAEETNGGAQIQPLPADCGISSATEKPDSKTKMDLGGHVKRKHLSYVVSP
B4: Mothers against decapentaplegic homolog 4 (Homo sapiens), Q13485 (parent)
chain: B1 chain
partner: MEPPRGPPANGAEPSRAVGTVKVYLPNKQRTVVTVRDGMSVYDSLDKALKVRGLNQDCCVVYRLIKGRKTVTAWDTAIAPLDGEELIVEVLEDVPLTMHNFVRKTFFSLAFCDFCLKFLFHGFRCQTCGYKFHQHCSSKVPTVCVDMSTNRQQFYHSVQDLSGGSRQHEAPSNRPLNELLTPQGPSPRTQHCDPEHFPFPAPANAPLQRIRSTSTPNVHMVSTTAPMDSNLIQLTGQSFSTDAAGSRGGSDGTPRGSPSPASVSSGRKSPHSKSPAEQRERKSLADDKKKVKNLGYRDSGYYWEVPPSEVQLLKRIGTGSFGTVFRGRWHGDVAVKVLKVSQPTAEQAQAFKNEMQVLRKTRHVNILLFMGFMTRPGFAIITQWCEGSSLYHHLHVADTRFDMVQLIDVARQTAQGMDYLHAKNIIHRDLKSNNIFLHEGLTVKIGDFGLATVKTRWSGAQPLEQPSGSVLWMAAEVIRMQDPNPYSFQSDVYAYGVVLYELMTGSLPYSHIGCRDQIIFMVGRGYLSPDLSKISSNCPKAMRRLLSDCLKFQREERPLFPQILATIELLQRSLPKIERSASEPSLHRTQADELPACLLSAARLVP
B5: Mothers against decapentaplegic homolog 4 (Homo sapiens), Q13485 (parent)
chain: B1 chain
partner: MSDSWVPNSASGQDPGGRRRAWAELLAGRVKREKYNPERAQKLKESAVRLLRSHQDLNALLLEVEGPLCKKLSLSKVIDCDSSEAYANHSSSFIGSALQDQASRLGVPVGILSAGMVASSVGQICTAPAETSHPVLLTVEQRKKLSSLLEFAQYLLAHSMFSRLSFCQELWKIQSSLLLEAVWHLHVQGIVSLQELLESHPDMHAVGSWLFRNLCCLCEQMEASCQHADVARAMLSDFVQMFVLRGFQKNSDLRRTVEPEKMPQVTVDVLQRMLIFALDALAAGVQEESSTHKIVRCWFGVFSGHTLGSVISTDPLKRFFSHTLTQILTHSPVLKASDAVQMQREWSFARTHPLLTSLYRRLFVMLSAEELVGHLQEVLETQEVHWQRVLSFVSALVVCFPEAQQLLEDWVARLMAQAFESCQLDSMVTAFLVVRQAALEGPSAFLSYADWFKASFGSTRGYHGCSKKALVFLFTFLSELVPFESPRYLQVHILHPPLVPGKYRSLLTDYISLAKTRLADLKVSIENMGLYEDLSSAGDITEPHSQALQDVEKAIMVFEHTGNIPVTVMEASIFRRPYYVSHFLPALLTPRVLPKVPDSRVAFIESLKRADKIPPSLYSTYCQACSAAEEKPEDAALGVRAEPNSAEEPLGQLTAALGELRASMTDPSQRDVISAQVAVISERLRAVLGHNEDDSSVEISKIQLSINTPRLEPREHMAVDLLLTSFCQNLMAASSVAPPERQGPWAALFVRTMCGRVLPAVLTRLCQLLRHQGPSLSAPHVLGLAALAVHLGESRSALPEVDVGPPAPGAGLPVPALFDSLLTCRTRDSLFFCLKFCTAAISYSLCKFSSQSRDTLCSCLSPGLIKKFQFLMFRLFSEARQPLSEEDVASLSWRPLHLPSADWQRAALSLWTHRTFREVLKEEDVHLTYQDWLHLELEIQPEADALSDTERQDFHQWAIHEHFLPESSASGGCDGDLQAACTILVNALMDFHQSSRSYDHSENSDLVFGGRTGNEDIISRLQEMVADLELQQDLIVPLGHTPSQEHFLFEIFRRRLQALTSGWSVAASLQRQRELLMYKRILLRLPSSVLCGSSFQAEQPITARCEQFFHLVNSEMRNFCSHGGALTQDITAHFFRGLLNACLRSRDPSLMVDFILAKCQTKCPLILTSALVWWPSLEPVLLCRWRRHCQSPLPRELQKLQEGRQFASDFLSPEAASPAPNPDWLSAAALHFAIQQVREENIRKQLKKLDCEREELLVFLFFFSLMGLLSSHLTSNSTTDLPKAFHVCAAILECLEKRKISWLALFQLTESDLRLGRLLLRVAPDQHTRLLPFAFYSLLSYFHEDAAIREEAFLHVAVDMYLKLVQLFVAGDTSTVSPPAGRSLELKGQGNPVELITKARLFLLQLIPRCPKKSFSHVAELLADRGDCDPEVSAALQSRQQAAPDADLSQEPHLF
B6: Mothers against decapentaplegic homolog 4 (Homo sapiens), Q13485 (parent)
chain: B1 chain
partner: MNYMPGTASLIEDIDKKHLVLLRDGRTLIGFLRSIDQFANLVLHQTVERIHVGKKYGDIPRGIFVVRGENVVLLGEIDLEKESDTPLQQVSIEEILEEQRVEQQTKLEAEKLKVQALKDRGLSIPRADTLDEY
B7: Mothers against decapentaplegic homolog 4 (Homo sapiens), Q13485 (parent)
chain: B1 chain
partner: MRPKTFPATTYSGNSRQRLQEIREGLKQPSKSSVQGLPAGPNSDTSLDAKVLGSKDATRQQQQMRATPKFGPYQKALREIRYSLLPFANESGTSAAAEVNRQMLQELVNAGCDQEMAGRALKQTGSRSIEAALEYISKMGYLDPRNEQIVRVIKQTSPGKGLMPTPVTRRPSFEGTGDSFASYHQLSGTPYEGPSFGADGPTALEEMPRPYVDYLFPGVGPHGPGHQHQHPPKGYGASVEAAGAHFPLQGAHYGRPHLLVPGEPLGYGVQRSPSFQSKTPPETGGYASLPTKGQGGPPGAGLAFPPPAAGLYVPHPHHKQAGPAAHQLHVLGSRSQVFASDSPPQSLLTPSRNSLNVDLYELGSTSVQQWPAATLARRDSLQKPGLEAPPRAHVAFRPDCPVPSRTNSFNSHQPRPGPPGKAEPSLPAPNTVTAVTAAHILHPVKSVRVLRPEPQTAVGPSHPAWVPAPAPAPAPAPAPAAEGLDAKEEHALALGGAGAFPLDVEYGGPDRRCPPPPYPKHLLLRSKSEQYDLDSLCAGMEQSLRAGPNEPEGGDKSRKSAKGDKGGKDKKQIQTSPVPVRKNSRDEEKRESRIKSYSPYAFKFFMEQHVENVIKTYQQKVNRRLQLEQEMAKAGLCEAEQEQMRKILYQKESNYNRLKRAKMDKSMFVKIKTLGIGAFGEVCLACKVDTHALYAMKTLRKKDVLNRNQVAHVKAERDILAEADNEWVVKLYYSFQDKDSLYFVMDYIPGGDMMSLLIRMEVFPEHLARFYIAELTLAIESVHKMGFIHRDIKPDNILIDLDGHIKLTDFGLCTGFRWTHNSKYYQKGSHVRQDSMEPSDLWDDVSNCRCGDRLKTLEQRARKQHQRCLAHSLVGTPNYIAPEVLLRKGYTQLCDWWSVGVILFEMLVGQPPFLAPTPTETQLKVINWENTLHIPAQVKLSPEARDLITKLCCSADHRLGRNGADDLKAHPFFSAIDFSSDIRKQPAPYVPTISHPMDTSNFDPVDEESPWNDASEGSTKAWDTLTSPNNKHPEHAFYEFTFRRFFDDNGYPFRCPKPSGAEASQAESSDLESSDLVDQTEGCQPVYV

Variants of: B1
Settings: with tet5c_human TENT5C
R361C was tested, and the “effect of a mutation on the interaction” value was “with no effect”.

Variants of: B2
Settings: with fancl_human FANCL
With R361H the “effect of a mutation on the interaction” value was “with no effect”.

Variants of: B2
Settings: with fancl_human FANCL
Remark: another data set of the same source
With R361C the “effect of a mutation on the interaction” value was “with no effect”.

Variants of: B2
Settings: with fancl_human FANCL
Remark: another data set of the same source
D351H was tested, and the “effect of a mutation on the interaction” value was “with no effect”.

Variants of: B2
Settings: with fancl_human FANCL
Remark: another data set of the same source
With G386D the “effect of a mutation on the interaction” value was “with no effect”.

Variants of: B2
Settings: with fancl_human FANCL
Remark: another data set of the same source
For G386D, the “effect of a mutation on the interaction” value was “increasing interaction strength”.

Variants of: B3
Settings: with errfi_human ERRFI1, Q9UJM3
D351H was tested, and the “effect of a mutation on the interaction” value was “with no effect”.

Variants of: B3
Settings: with errfi_human ERRFI1, Q9UJM3
Remark: another data set of the same source
In the case of R361C, the “effect of a mutation on the interaction” value is reported as “with no effect”.

Variants of: B3
Settings: with errfi_human ERRFI1, Q9UJM3
Remark: another data set of the same source
For R361H, the “effect of a mutation on the interaction” value was “with no effect”.

Variants of: B3
Settings: with errfi_human ERRFI1, Q9UJM3
Remark: another data set of the same source
In the case of G386D, the “effect of a mutation on the interaction” value is reported as “with no effect”.

Variants of: B4
Settings: with araf_human ARAF
With R361C the “effect of a mutation on the interaction” value was “with no effect”.

Variants of: B4
Settings: with araf_human ARAF
Remark: another data set of the same source
For R361H, the “effect of a mutation on the interaction” value was “with no effect”.

Variants of: B4
Settings: with araf_human ARAF
Remark: another data set of the same source
G386D was tested, and the “effect of a mutation on the interaction” value was “with no effect”.

Variants of: B4
Settings: with araf_human ARAF
Remark: another data set of the same source
With G386D the “effect of a mutation on the interaction” value was “increasing interaction strength”.

Variants of: B4
Settings: with araf_human ARAF
Remark: another data set of the same source
For D351H, the “effect of a mutation on the interaction” value was “with no effect”.

Variants of: B5
Settings: with fanca_human FANCA
In the case of D351H, the “effect of a mutation on the interaction” value is reported as “with no effect”.

Variants of: B5
Settings: with fanca_human FANCA
Remark: another data set of the same source
With G386D the “effect of a mutation on the interaction” value was “with no effect”.

Variants of: B5
Settings: with fanca_human FANCA
Remark: another data set of the same source
For R361H, the “effect of a mutation on the interaction” value was “with no effect”.

Variants of: B5
Settings: with fanca_human FANCA
Remark: another data set of the same source
In the case of R361C, the “effect of a mutation on the interaction” value is reported as “with no effect”.

Variants of: B6
Settings: with lsm1_human LSM1, O15116
With D351H the “effect of a mutation on the interaction” value was “with no effect”.

Variants of: B6
Settings: with lsm1_human LSM1, O15116
Remark: another data set of the same source
With G386D the “effect of a mutation on the interaction” value was “with no effect”.

Variants of: B6
Settings: with lsm1_human LSM1, O15116
Remark: another data set of the same source
For R361C, the “effect of a mutation on the interaction” value was “with no effect”.

Variants of: B6
Settings: with lsm1_human LSM1, O15116
Remark: another data set of the same source
For R361H, the “effect of a mutation on the interaction” value was “with no effect”.

Variants of: B7
Settings: with lats2_human LATS2, Q9NRM7
In the case of G386D, the “effect of a mutation on the interaction” value is reported as “with no effect”.
